Experimental data: publication PMC9482650, “Quantitative fragmentomics allow affinity mapping of interactomes” (Nature Communications, 2022)
Each block holds one binder with its values, some of them ahead of it.

Key:
Assay in all cases: holdup assay
Parameters in all cases: key: below the threshold = too weak to quantify, mostly under pKd 3.1 to 4
Inadl_8, Q8NI35 = molecular target: Inadl_8, Q8NI35
SIPA1L2, Q9P2F8 = molecular target: T1, SIPA1L2, Q9P2F8
T1 sequence (Q9P2F8 945-1036, limits assumed, looked up): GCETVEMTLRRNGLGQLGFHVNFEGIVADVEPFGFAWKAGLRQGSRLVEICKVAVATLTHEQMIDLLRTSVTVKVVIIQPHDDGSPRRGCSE

GRIP1_4, Q9Y3R0 = molecular target: T2, GRIP1_4, Q9Y3R0
T2 sequence (Q9Y3R0 467-571, limits assumed, looked up): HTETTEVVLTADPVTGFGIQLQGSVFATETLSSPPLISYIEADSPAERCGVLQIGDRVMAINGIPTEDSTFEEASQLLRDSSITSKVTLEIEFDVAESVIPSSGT

DLG4_1, P78352 = molecular target: DLG4_1, P78352
Sequence of DLG4_1, P78352 (P78352 62-152): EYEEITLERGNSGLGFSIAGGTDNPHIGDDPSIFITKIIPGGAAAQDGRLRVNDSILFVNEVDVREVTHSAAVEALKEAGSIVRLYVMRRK

MAGI3_2, Q5TCQ9 = molecular target: MAGI3_2, Q5TCQ9
Sequence of MAGI3_2, Q5TCQ9 (Q5TCQ9 398-503): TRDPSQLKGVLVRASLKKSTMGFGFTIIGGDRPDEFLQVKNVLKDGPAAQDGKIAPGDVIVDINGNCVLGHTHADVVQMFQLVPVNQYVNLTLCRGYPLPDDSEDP

TIAM2, Q8IVF5 = molecular target: T3, TIAM2, Q8IVF5
T3 sequence (Q8IVF5 885-986, limits assumed, looked up): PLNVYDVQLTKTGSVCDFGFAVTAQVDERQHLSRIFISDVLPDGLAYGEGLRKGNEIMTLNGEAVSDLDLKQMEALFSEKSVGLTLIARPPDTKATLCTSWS

GRIP2_4, Q9C0E4 = molecular target: GRIP2_4, Q9C0E4
Sequence of GRIP2_4, Q9C0E4 (Q9C0E4 446-548): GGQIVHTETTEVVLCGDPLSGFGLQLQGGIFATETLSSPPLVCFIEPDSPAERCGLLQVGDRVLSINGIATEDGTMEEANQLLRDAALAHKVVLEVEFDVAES

MAGI1_1, Q96QZ7 = molecular target: MAGI1_1, Q96QZ7
Sequence of MAGI1_1, Q96QZ7 (Q96QZ7 1-106): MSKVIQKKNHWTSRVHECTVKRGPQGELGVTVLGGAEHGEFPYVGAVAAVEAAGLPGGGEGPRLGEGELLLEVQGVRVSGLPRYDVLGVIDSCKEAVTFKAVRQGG

GRIP1_5, Q9Y3R0 = molecular target: T4, GRIP1_5, Q9Y3R0
T4 sequence (Q9Y3R0 568-668, limits assumed, looked up): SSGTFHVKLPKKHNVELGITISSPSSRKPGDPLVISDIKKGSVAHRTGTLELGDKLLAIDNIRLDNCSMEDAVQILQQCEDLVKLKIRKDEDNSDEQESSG

DLG2_3, Q15700 = molecular target: DLG2_3, Q15700
DVL3, Q92997 = molecular target: T5, DVL3, Q92997
T5 sequence (Q92997 244-331, limits assumed, looked up): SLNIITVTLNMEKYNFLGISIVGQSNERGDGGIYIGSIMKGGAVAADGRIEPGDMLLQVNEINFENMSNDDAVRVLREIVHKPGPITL

MPDZ_5, O75970 = molecular target: T6, MPDZ_5, O75970
T6 sequence (O75970 695-796, limits assumed, looked up): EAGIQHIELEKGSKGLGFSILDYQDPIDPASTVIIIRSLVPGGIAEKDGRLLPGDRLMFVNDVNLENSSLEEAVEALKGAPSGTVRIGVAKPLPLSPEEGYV

LIN7C, Q9NUP9 = molecular target: T7, LIN7C, Q9NUP9
T7 sequence (Q9NUP9 88-185, limits assumed, looked up): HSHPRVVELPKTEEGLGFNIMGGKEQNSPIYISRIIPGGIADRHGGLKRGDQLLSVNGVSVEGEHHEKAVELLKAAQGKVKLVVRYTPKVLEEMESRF

LAP2, Q96RT1 = molecular target: LAP2, Q96RT1
Sequence of LAP2, Q96RT1 (Q96RT1 other isoform, or with tags, fused parts or gaps): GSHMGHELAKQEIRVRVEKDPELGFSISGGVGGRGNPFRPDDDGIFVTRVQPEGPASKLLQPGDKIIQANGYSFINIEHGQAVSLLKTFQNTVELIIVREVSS

APBA3_1, O96018 = molecular target: T8, APBA3_1, O96018
T8 sequence (O96018 389-490, limits assumed, looked up): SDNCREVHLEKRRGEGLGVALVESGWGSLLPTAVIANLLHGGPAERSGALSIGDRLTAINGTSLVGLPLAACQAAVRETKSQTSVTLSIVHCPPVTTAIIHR

PDLIM1, O00151 = molecular target: PDLIM1, O00151
Sequence of PDLIM1, O00151 (O00151 1-87): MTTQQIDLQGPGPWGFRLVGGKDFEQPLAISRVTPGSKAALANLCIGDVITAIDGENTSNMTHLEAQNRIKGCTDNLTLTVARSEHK

Inadl_1, Q8NI35 = molecular target: Inadl_1, Q8NI35
Sequence of Inadl_1, Q8NI35 (Q8NI35 113-229): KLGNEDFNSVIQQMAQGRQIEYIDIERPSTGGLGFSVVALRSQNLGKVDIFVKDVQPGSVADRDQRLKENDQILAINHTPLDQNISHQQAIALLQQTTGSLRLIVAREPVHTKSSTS

MPDZ_12, O75970 = molecular target: T9, MPDZ_12, O75970
T9 sequence (O75970 1857-1958, limits assumed, looked up): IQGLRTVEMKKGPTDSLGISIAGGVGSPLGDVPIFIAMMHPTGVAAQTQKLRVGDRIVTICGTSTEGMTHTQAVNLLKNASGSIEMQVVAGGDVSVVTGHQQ

NHERF2_2, Q15599 = molecular target: NHERF2_2, Q15599
Sequence of NHERF2_2, Q15599 (Q15599 142-238): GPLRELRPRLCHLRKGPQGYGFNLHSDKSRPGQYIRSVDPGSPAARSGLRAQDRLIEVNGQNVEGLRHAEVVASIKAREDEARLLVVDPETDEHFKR

NHERF3_1, Q5T2W1 = molecular target: T10, NHERF3_1, Q5T2W1
T10 sequence (Q5T2W1 4-100, limits assumed, looked up): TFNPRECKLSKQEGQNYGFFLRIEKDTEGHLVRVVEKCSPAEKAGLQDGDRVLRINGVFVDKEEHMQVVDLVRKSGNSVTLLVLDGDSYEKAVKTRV

IL16_3, Q14005 = molecular target: IL16_3, Q14005
Sequence of IL16_3, Q14005 (Q14005 1107-1207): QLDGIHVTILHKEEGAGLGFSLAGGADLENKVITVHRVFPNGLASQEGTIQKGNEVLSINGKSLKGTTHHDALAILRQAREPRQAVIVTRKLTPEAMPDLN

SCRIB_2, Q14160 = molecular target: SCRIB_2, Q14160
Sequence of SCRIB_2, Q14160 (Q14160 857-960): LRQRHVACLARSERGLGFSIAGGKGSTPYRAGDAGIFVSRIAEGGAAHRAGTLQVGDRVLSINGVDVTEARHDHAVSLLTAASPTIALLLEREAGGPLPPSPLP

GRIP2_5, Q9C0E4 = molecular target: GRIP2_5, Q9C0E4
Sequence of GRIP2_5, Q9C0E4 (Q9C0E4 544-642): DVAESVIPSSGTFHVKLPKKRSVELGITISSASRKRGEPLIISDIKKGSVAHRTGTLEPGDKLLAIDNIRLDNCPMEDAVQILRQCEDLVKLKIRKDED

Inadl_2, Q8NI35 = molecular target: Inadl_2, Q8NI35
Sequence of Inadl_2, Q8NI35 (Q8NI35 238-335): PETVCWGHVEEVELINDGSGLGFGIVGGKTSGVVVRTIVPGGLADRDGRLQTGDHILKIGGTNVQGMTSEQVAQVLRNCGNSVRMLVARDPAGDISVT

GRIP1_3, Q9Y3R0 = molecular target: T11, GRIP1_3, Q9Y3R0
T11 sequence (Q9Y3R0 247-346, limits assumed, looked up): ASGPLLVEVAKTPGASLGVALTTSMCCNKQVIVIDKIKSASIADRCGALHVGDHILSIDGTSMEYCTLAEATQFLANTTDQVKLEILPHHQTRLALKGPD

DLG2_2, Q15700 = molecular target: DLG2_2, Q15700
[1] = plain residues with an end cap or a label only (N-terminal biotin on a linker: ahx)
[2] = plain residues with an end cap or a label only (N-terminal biotin on a linker: ttds)

Sequence of Inadl_8, Q8NI35 (Q8NI35 1425-1530): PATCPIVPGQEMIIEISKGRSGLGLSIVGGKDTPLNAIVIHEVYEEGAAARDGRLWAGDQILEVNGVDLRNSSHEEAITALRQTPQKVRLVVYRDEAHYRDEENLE

B2: RASSF6, Q6ZTQ3 (peptide)
chain: KLVIKTETTV
pKd (Inadl_8, Q8NI35; [2]): below the threshold
pKd (SIPA1L2, Q9P2F8; [2]): below the threshold
pKd (GRIP1_4, Q9Y3R0; [2]): below the threshold
pKd (DLG4_1, P78352; [2]): 5.04
pKd (MAGI3_2, Q5TCQ9; [2]): 5.22
pKd (TIAM2, Q8IVF5; [2]): below the threshold
pKd (GRIP2_4, Q9C0E4; [2]): below the threshold
pKd (MAGI1_1, Q96QZ7; [2]): below the threshold
pKd (GRIP1_5, Q9Y3R0; [2]): below the threshold
pKd (DLG2_3, Q15700; [2]): 4.49
pKd (DVL3, Q92997; [2]): below the threshold
pKd (MPDZ_5, O75970; [2]): below the threshold
pKd (LIN7C, Q9NUP9; [2]): 4.23
pKd (LAP2, Q96RT1; [2]): below the threshold
pKd (APBA3_1, O96018; [2]): below the threshold
pKd (PDLIM1, O00151; [2]): below the threshold
pKd (Inadl_1, Q8NI35; [2]): below the threshold
pKd (MPDZ_12, O75970; [2]): below the threshold
pKd (NHERF2_2, Q15599; [2]): below the threshold
pKd (NHERF3_1, Q5T2W1; [2]): below the threshold
pKd (IL16_3, Q14005; [2]): below the threshold
pKd (SCRIB_2, Q14160; [2]): 3.95
pKd (GRIP2_5, Q9C0E4; [2]): below the threshold
pKd (Inadl_2, Q8NI35; [2]): below the threshold
pKd (GRIP1_3, Q9Y3R0; [2]): below the threshold
pKd (DLG2_2, Q15700; [2]): 5.24

B3: FZD7, O75084 (peptide)
chain: SHSSKGETAV
pKd (Inadl_8, Q8NI35; [2]): below the threshold
pKd (SIPA1L2, Q9P2F8; [2]): below the threshold
pKd (GRIP1_4, Q9Y3R0; [2]): below the threshold
pKd (DLG4_1, P78352; [2]): 4.4
pKd (MAGI3_2, Q5TCQ9; [2]): 4.93
pKd (TIAM2, Q8IVF5; [2]): below the threshold
pKd (GRIP2_4, Q9C0E4; [2]): below the threshold
pKd (MAGI1_1, Q96QZ7; [2]): below the threshold
pKd (GRIP1_5, Q9Y3R0; [2]): below the threshold
pKd (DLG2_3, Q15700; [2]): 4.32
pKd (DVL3, Q92997; [2]): below the threshold
pKd (MPDZ_5, O75970; [2]): below the threshold
pKd (LIN7C, Q9NUP9; [2]): 4.03
pKd (LAP2, Q96RT1; [2]): 4.04
pKd (APBA3_1, O96018; [2]): below the threshold
pKd (PDLIM1, O00151; [2]): below the threshold
pKd (Inadl_1, Q8NI35; [2]): below the threshold
pKd (MPDZ_12, O75970; [2]): below the threshold
pKd (NHERF2_2, Q15599; [2]): below the threshold
pKd (NHERF3_1, Q5T2W1; [2]): 4.22
pKd (IL16_3, Q14005; [2]): below the threshold
pKd (SCRIB_2, Q14160; [2]): 4.58
pKd (GRIP2_5, Q9C0E4; [2]): below the threshold
pKd (Inadl_2, Q8NI35; [2]): below the threshold
pKd (GRIP1_3, Q9Y3R0; [2]): below the threshold
pKd (DLG2_2, Q15700; [2]): 4.55

The remaining lines, values ahead:

pKd (Inadl_8, Q8NI35; [1]): 4.3
pKd (SIPA1L2, Q9P2F8; [1]): below the threshold
pKd (GRIP1_4, Q9Y3R0; [1]): below the threshold
pKd (DLG4_1, P78352; [1]): 3.84
pKd (MAGI3_2, Q5TCQ9; [1]): 4.27
pKd (TIAM2, Q8IVF5; [1]): below the threshold
pKd (GRIP2_4, Q9C0E4; [1]): below the threshold
pKd (MAGI1_1, Q96QZ7; [1]): below the threshold
pKd (GRIP1_5, Q9Y3R0; [1]): below the threshold
pKd (DLG2_3, Q15700; [1]): 4.06
pKd (DVL3, Q92997; [1]): below the threshold
pKd (MPDZ_5, O75970; [1]): below the threshold
pKd (LIN7C, Q9NUP9; [1]): 3.47
pKd (LAP2, Q96RT1; [1]): below the threshold
pKd (APBA3_1, O96018; [1]): below the threshold
pKd (PDLIM1, O00151; [1]): below the threshold
pKd (Inadl_1, Q8NI35; [1]): 3.82
pKd (MPDZ_12, O75970; [1]): below the threshold
pKd (NHERF2_2, Q15599; [1]): below the threshold
pKd (NHERF3_1, Q5T2W1; [1]): below the threshold
pKd (IL16_3, Q14005; [1]): below the threshold
pKd (SCRIB_2, Q14160; [1]): 3.69
pKd (GRIP2_5, Q9C0E4; [1]): below the threshold
pKd (Inadl_2, Q8NI35; [1]): below the threshold
pKd (GRIP1_3, Q9Y3R0; [1]): below the threshold
pKd (DLG2_2, Q15700; [1]): 3.98
B1: PDZRN3, Q9UPQ7 (peptide)
chain: YNSFLSVTTV

pKd (Inadl_8, Q8NI35; [2]): 4.04
pKd (SIPA1L2, Q9P2F8; [2]): below the threshold
pKd (GRIP1_4, Q9Y3R0; [2]): below the threshold
pKd (DLG4_1, P78352; [2]): below the threshold
pKd (MAGI3_2, Q5TCQ9; [2]): 4.16
pKd (TIAM2, Q8IVF5; [2]): below the threshold
pKd (GRIP2_4, Q9C0E4; [2]): below the threshold
pKd (MAGI1_1, Q96QZ7; [2]): below the threshold
pKd (GRIP1_5, Q9Y3R0; [2]): below the threshold
pKd (DLG2_3, Q15700; [2]): 3.68
pKd (DVL3, Q92997; [2]): 3.6
pKd (MPDZ_5, O75970; [2]): below the threshold
pKd (LIN7C, Q9NUP9; [2]): 3.63
pKd (LAP2, Q96RT1; [2]): below the threshold
pKd (APBA3_1, O96018; [2]): below the threshold
pKd (PDLIM1, O00151; [2]): below the threshold
pKd (Inadl_1, Q8NI35; [2]): below the threshold
pKd (MPDZ_12, O75970; [2]): below the threshold
pKd (NHERF2_2, Q15599; [2]): below the threshold
pKd (NHERF3_1, Q5T2W1; [2]): below the threshold
pKd (IL16_3, Q14005; [2]): below the threshold
pKd (SCRIB_2, Q14160; [2]): below the threshold
pKd (GRIP2_5, Q9C0E4; [2]): below the threshold
pKd (Inadl_2, Q8NI35; [2]): below the threshold
pKd (GRIP1_3, Q9Y3R0; [2]): below the threshold
pKd (DLG2_2, Q15700; [2]): below the threshold
B4: GPR6, P46095 (peptide)
chain: PFRSRSPSEV

pKd (Inadl_8, Q8NI35; [1]): below the threshold
pKd (SIPA1L2, Q9P2F8; [1]): below the threshold
pKd (GRIP1_4, Q9Y3R0; [1]): below the threshold
pKd (DLG4_1, P78352; [1]): below the threshold
pKd (MAGI3_2, Q5TCQ9; [1]): below the threshold
pKd (TIAM2, Q8IVF5; [1]): below the threshold
pKd (GRIP2_4, Q9C0E4; [1]): below the threshold
pKd (MAGI1_1, Q96QZ7; [1]): below the threshold
pKd (GRIP1_5, Q9Y3R0; [1]): below the threshold
pKd (DLG2_3, Q15700; [1]): below the threshold
pKd (DVL3, Q92997; [1]): below the threshold
pKd (MPDZ_5, O75970; [1]): below the threshold
pKd (LIN7C, Q9NUP9; [1]): 3.49
pKd (LAP2, Q96RT1; [1]): below the threshold
pKd (APBA3_1, O96018; [1]): below the threshold
pKd (PDLIM1, O00151; [1]): 3.51
pKd (Inadl_1, Q8NI35; [1]): below the threshold
pKd (MPDZ_12, O75970; [1]): below the threshold
pKd (NHERF2_2, Q15599; [1]): 4.32
pKd (NHERF3_1, Q5T2W1; [1]): 4.55
pKd (IL16_3, Q14005; [1]): below the threshold
pKd (SCRIB_2, Q14160; [1]): below the threshold
pKd (GRIP2_5, Q9C0E4; [1]): below the threshold
pKd (Inadl_2, Q8NI35; [1]): below the threshold
pKd (GRIP1_3, Q9Y3R0; [1]): below the threshold
pKd (DLG2_2, Q15700; [1]): below the threshold
B5: SHKBP1, Q8TBC3 (peptide)
chain: PKMKLNETSF
